# In patent US5891697A, “Monoterpene synthases from common sage (Salvia officinalis)” (Washington State University Research Foundation, priority 1997, dated 1999):
# B1: pGEX fusion form of SBS (glutathione-S-transferase fusion of the sage (+)-bornyl diphosphate synthase preprotein) (enzyme)
# chain: MSIISMNVSILSKPLNCLHNLERRPSKALLVPCTAPTARLRASCSSKLQEAHQIRRSGNYQPALWDSNYIQSLNTPYTEERHLDRKAELIVQVRILLKEKMEPVQQLELIHDLKYLGLSDFFQDEIKEILGVIYNEHKCFHNNEVEKMDLYFTALGFRLLRQHGFNISQDVFNCFKNEKGIDFKASLAQDTKGMLQLYEASFLLRKGEDTLELAREFATKCLQKKLDEGGNEIDENLLLWIRHSLDLPLHWRIQSVEARWFIDAYARRPDMNPLIFELAKLNFNIIQATHQQELKDLSRWWSRLCFPEKLPFVRDRLVESFFWAVGMFEPHQHGYQRKMAATIIVLATVIDDIYDVYGTLDELELFTDTFKRWDTESITRLPYYMQLCYWGVHNYISDAAYDILKEHGFFCLQYLRKSVVDLVEAYFHEAKWYHSGYTPSLDEYLNIAKISVASPAIISPTYFTFANASHDTAVIDSLYQYHDILCLAGIILRLPDDLGTSYFELARGDVPKTIQCYMKETNASEEEAVEHVKFLIREAWKDMNTAIAAGYPFPDGMVAGAANIGRVAQFIYLHGDGFGVQHSKTYEHIAGLLFEPYA
# B2: SBS protein after thrombin removal of the glutathione-S-transferase fusion tag ((+)-bornyl diphosphate synthase preprotein) (enzyme)
# chain: MSIISMNVSILSKPLNCLHNLERRPSKALLVPCTAPTARLRASCSSKLQEAHQIRRSGNYQPALWDSNYIQSLNTPYTEERHLDRKAELIVQVRILLKEKMEPVQQLELIHDLKYLGLSDFFQDEIKEILGVIYNEHKCFHNNEVEKMDLYFTALGFRLLRQHGFNISQDVFNCFKNEKGIDFKASLAQDTKGMLQLYEASFLLRKGEDTLELAREFATKCLQKKLDEGGNEIDENLLLWIRHSLDLPLHWRIQSVEARWFIDAYARRPDMNPLIFELAKLNFNIIQATHQQELKDLSRWWSRLCFPEKLPFVRDRLVESFFWAVGMFEPHQHGYQRKMAATIIVLATVIDDIYDVYGTLDELELFTDTFKRWDTESITRLPYYMQLCYWGVHNYISDAAYDILKEHGFFCLQYLRKSVVDLVEAYFHEAKWYHSGYTPSLDEYLNIAKISVASPAIISPTYFTFANASHDTAVIDSLYQYHDILCLAGIILRLPDDLGTSYFELARGDVPKTIQCYMKETNASEEEAVEHVKFLIREAWKDMNTAIAAGYPFPDGMVAGAANIGRVAQFIYLHGDGFGVQHSKTYEHIAGLLFEPYA
# B3: Salvia officinalis 1,8-cineole synthase (SCS), recombinant, clone 3B5, SEQ ID No:4 (Salvia officinalis) (protein)
# chain: RRTGGYQPTLWDFSTIQLFDSEYKEEKHLMRAAGMIAQVNMLLQEEVDSIQRLELIDDLRRLGISCHFDREIVEILNSKYYTNNEIDESDLYSTALRFKLLRQYDFSVSQEVFDCFKNDKGTDFKPSLVDDTRGLLQLYEASFLSAQGEETLHLARDFATKFLHKRVLVDKDINLLSSIERALELPTHWRVQMPNARSFIDAYKRRPDMNPTVLELAKLDFNMVQAQFQQELKEASRWWNSTGLVHELPFVRDRIVECYYWTTGVVERREHGYERIMLTKINALVTTIDDVFDIYGTLEELQLFTTAIQRWDIESMKQLPPYMQICYLALFNFVNEMAYDTLRDKGFNSTPYLRKAWVDLVESYLIEAKWYYMGHKPSLEEYMKNSWISIGGIPILSHLFFRLTDSIEEEDAESMHKYHDIVRASCTILRLADDMGTSLDEVERGDVPKSVQCYMNEKNASEEEAREHVRSLIDQTWKMMNKEMMTSSFSKYFVQVSANLARMAQWIYQHESDGFGMQHSLVNKMLRGLLFDRYE
# Key:
# [1] = biological target: T1, native (+)-bornyl diphosphate synthase from sage (Salvia officinalis) (Salvia officinalis, UniProt O81192); details: read-out: Km (geranyl diphosphate), literature value; native enzyme; Croteau et al. 1989, 1990; cited from earlier work
# T1 construct: for the corresponding native enzymes
# [2] = biological target: native 1,8-cineole synthase from sage (Salvia officinalis) (Salvia officinalis, UniProt O81191); details: read-out: Km (geranyl diphosphate), literature value; native enzyme; Croteau et al., Arch. Biochem. Biophys. 309:184-192, 1994; cited from earlier work
# [3] = biological target: the molecule itself; test: calibrated gel permeation chromatography (Superdex S-200); single peak of activity at Mr ~200,000; self-association (homodimer)
# [4] = biological target: the molecule itself; test: gel permeation re-chromatography after thrombin removal of the GST tag; self-association (homodimer)
# [5] = substrate: CC(C)=CCC/C(C)=C/COP(=O)(O)OP(=O)(O)O; test: cells, lysate or membranes named; details: other: recombinant SCS; 0.45 to 45 μM [1-3H]geranyl diphosphate, saturating divalent metal ion; likely somewhat high (contaminating phosphatases); pH 6.0; 31.0 °C
molecule,measurement,setting,value
CC(C)=CCC/C(C)=C/COP(=O)(O)OP(=O)(O)O [geranyl diphosphate],Km,[1],2 µM
same,Km,[2],1.1 µM
B1,binding result,[3],binds
B2,binding result,[4],binds
B3,Km,[5],7.0 µM
